Laboratory results: publication PMC5314347

B1: ABHD5-luciferase(N) (alpha-beta hydrolase domain-containing 5, wild type) [mouse] / PLIN1-luciferase(C) (perilipin 1) [not stated] (parent)
chain 1: MKAMAAEEEVDSADAGGGSGWLTGWLPTWCPTSTSHLKEAEEKMLKCVPCTYKKEPVRISNGNRIWTLMFSHNISSKTPLVLLHGFGGGLGLWALNFEDLSTDRPVYAFDLLGFGRSSRPRFDSDAEEVENQFVESIEEWRCALRLDKMILLGHNLGGFLAAAYSLKYPSRVSHLILVEPWGFPERPDLADQERPIPVWIRALGAALTPFNPLAGLRIAGPFGLSLVQRLRPDFKRKYSSMFEDDTVTEYIYHCNVQTPSGETAFKNMTIPYGWAKRPMLQRIGGLHPDIPVSVIFGARSCIDGNSGTSIQSLRPKSYVKTIAILGAGHYVYADQPEEFNQKVKEICHTVD
chain 2: MSMNKGPTLLDGDLPEQENVLQRVLQLPVVSGTCECFQKTYNSTKEAHPLVASVCNAYEKGVQGASNLAAWSMEPVVRRLSTQFTAANELACRGLDHLEEKIPALQYPPEKIASELKGTISTRLRSARNSISVPIASTSDKVLGATLAGCELALGMAKETAEYAANTRVGRLASGGADLALGSIEKVVEFLLPPDKESAPSSGRQRTQKAPKAKPSLVRRVSTLANTLSRHTMQTTAWALKQGHSLAMWIPGVAPLSSLAQWGASAAMQVVSRRQSEVRVPWLHNLAASQDESHDDQTDTEGEETDDEEEEEESEAEENVLREVTALPNPRGLLGGVVHTVQNTLRNTISAVTWAPAAVLGTVGRILHLTPAQAVSSTKGRAMSLSDALKGVTDNVVDTVVHYVPLPRLSLMEPESEFRDIDNPSAEAERKGSGARPASPESTPRPGQPRGSLRSVRGLSAPSCPGLDDKTEASARPGFLAMPREKPARRVSDSFFRPSVMEPILGRAQYSQLRKKS
B2: ABHD5-luciferase(N) (alpha-beta hydrolase domain-containing 5, wild type) [mouse] / PLIN5-luciferase(C) (perilipin 5) [mouse] (parent)
chain 1: B1 chain 1
chain 2: MDQRGEDTTLAPHSRMSGDQTAQDPGSSLGELDQQNVVNRVVALPLVKATCTAVSSAYNSAKDRHPLLGSACRLAEHCVCSVTTCALDHAQPLLEHLQPQLATVNDLACRGLDKLEEKLPFLQQPSDMVVTSAKDTVAKSVTGMVDLAQRGRRWSGELRRSMSQAMDMVLGKSEKLVDRFLPMTEAELAVLAAEAEGPEVGTVEEQRQQQGYFVRLGSLSARLRHLAYEHSLGKLRQSKHRTQEMLAQLQETLELIQHMQRGASPSPTFHPPKTQELWGSWSPCLENGRSHSEVELETLALSRSLTLELQNAVDALAGCVRGLPPSAQAKVAEVQRSVDALQATFADAHCLGDVAPTALAEGRGSVARAHACVDEFLDLVLRAMPLPWLVGPFAPILVEQSEPLINLATCVDEVVGDPDPRWAHMDWPAQKRAWEAESADPGGQEAEPPRGQGKHTMMPELDF

Variants of: B1
Assay: luciferase protein complementation analysis, SR4995 dose-response
Conditions: with PLIN1-luciferase(C) (perilipin 1); SR4995 titrated from 1e-8.5 to 1e-4 M; mean ± SD; read off a plot

| IC50 (log10 M (log[SR4995])) | Variant |
| --- | --- |
| -6.8 | chain 1 MKAMAAEEEVDSADAGGGSGWLTGWLPTWCPTSTSHLKEAEEKMLKCVPCTYKKEPVRISNGNRIWTLMFSHNISSKTPLVLLHGFGGGLGLWALNFEDLSTDRPVYAFDLLGFGRSSRPRFDSDAEEVENQFVESIEEWRCALRLDKMILLGHNLGGFLAAAYSLKYPSRVSHLILVEPWGFPERPDLADQERPIPVWIRALGAALTPFNPLAGLRIAGPFGLSLVQRLRPDFKRKYSSMFEDDTVTEYIYHCNVQTPSGETAFKNMTIPYGWAKRPMLQRIGGLHPDIPVSVIFGARSCIDGNSGTSIQSLRPKSYVKTIAILGASHYVYADQPEEFNQKVKEICHTVD [chain 1 G328S] |
| -6.7 | chain 1 MKAMAAEEEVDSADAGGGSGWLTGWLPTWCPTSTSHLKEAEEKMLKCVPCTYKKEPVRISNGNRIWTLMFSHNISSKTPLVLLHGFGGGLGLWALNFEDLSTDRPVYAFDLLGFGRSSRPRFDSDAEEVENQFVESIEEWRCALRLDKMILLGHNLGGFLAAAYSLKYPSRVSHLILVEPWGFPERPDLADQERPIPVWIRALGAALTPFNPLAGLRIAGPFGLSLVQRLRPDFKRKYSSMFEDDTVTEYIYHCNVQTPSGETAFKNMTIPYGWAKRPMLQRIGGLHPDIPVSVIFGANSCIDGNSGTSIQSLRPKSYVKTIAILGAGHYVYADQPEEFNQKVKEICHTVD [chain 1 R299N] |

Variants of: B2
Assay: as above
Conditions: with PLIN5-luciferase(C) (perilipin 5) [mouse]; SR4995 titrated from 1e-8.5 to 1e-4 M; mean ± SD; read off a plot

| IC50 (log10 M (log[SR4995])) | Variant |
| --- | --- |
| -6.5 | chain 1 MKAMAAEEEVDSADAGGGSGWLTGWLPTWCPTSTSHLKEAEEKMLKCVPCTYKKEPVRISNGNRIWTLMFSHNISSKTPLVLLHGFGGGLGLWALNFEDLSTDRPVYAFDLLGFGRSSRPRFDSDAEEVENQFVESIEEWRCALRLDKMILLGHNLGGFLAAAYSLKYPSRVSHLILVEPWGFPERPDLADQERPIPVWIRALGAALTPFNPLAGLRIAGPFGLSLVQRLRPDFKRKYSSMFEDDTVTEYIYHCNVQTPSGETAFKNMTIPYGWAKRPMLQRIGGLHPDIPVSVIFGANSCIDGNSGTSIQSLRPKSYVKTIAILGAGHYVYADQPEEFNQKVKEICHTVD [chain 1 R299N] |
| -7.2 | chain 1 MKAMAAEEEVDSADAGGGSGWLTGWLPTWCPTSTSHLKEAEEKMLKCVPCTYKKEPVRISNGNRIWTLMFSHNISSKTPLVLLHGFGGGLGLWALNFEDLSTDRPVYAFDLLGFGRSSRPRFDSDAEEVENQFVESIEEWRCALRLDKMILLGHNLGGFLAAAYSLKYPSRVSHLILVEPWGFPERPDLADQERPIPVWIRALGAALTPFNPLAGLRIAGPFGLSLVQRLRPDFKRKYSSMFEDDTVTEYIYHCNVQTPSGETAFKNMTIPYGWAKRPMLQRIGGLHPDIPVSVIFGARSCIDGNSGTSIQSLRPKSYVKTIAILGASHYVYADQPEEFNQKVKEICHTVD [chain 1 G328S] |
